One assay deals with human IL-36R (human) (UniProt Q9HB29). Nature of the assay: flow cytometry on CHO-K1 cells expressing human IL-36R; fit value in the second table under the plot for a flat curve (row ECF corresponds to EC90 of Table 8; no unit in the table, axis in µg/mL). Background: A flow cytometer gives signals particle by particle.
A further assay has as its target monkey IL-36R (monkey). Nature of the assay: flow cytometry on CHO-K1 cells expressing monkey IL-36R; fit value in the second table under the plot for a flat curve (row ECF corresponds to EC90 of Table 8; no unit in the table, axis in µg/mL).

Chain of human IL-36R (human) (Q9HB29 20-575): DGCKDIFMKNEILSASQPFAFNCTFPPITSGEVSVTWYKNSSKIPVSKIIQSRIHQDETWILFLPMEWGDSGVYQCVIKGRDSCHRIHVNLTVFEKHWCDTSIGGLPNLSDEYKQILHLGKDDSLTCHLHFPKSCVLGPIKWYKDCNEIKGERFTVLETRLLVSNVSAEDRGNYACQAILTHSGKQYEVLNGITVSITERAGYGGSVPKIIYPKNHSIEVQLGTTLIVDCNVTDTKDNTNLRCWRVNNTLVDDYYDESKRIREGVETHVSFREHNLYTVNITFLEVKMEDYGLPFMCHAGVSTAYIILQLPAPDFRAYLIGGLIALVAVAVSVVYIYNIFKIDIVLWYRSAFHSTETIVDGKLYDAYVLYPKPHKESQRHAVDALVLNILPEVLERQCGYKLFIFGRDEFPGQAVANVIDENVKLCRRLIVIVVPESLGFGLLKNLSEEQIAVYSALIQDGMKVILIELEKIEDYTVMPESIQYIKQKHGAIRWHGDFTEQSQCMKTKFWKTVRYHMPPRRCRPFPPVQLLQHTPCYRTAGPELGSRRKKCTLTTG

Regarding “TNP IgG1 (Fc silence) negative control antibody 900543”, the ECF with human IL-36R (human) was 0.000494 µg/mL; with monkey IL-36R (monkey) it was 0.000457 µg/mL.

The record behind these values is patent US20230399409A1.
